Measured values: the DeepSol protein solubility set

experiment: soluble on expression in E. coli; label from the status in PepcDB or PDB records

Sequence	soluble on expression in E. coli
MHGIDLHTHSNISDGTLSPSCLVDAAIACGIHTLALTDHDTMDGLETAIQQAQGHDIQIISGAEISSQWSRPNTKKAYGVHIVALNMQNPEPLLDALVIQKNIRAERAQQICQILQQCTGQDIYTDVLLKVEGEPDRITRTHIAKALVEKEIVARPQQAFDRFLKEGKRAYVKFDGLNLADTIRIIHESEGFAILAHPTRYDLSSTNVRYLIELFAKMGGDAVELPPSVDPVSTRQMIDRIIQQFDLKVSIGSDFHGENMPWIKLGHTPQPNPHQTGIWESFR	not soluble
MHHHHHHLESSGDFSLLSSPINREKNGTEIVKFSIHPYKGTVIRLGEEILPFKVLEMDKNIALVEMAIPVYKDEKEIELKLSSPGFQNSSYRIRKPEELNEKLIALDKEGITHRFISRFKTGFQPKSVRFIDNTRLAIPLLEDEGMDVLDINSGQTVRLSPPEKYKKKLGFVETISIPEHNELWVSQMQANAVHVFDLKTLAYKATVDLTGKWSKILLYDPIRDLVYCSNWISEDISVIDRKTKLEIRKTDKIGLPRGLLLSKDGKELYIAQFSASNQESGGGRLGIYSMDKEKLIDTIGPPGNKRHIVSGNTENKIYVSDMCCSKIEVYDLKEKKVQKSIPVFDKPNTIALSPDGKYLYVSCRGPNHPTEGYLKKGLVLGKVYVIDTTTDTVKEFWEAGNQPTGLDVSPDNRYLVISDFLDHQIRVYRRDGF	soluble
MHHHHHHMGIVTGPIIDHSKENDVMNEAEQNAETVRRGYAAFNSGDMKTLTELFDENASWHTPGRSRIAGDHKGREAIFAQFGRYGGETGGTFKAVLLHVLKSDDGRVIGIHRNTAERGGKRLDVGCCIVFEFKNGRVIDGREHFYDLYAWDEFWR	soluble
MHHHHHHMNPERSERIEIPVLPLRDVVVYPHMVIPLFVGREKSIRCLEAAMDHDKKIMLVAQKEASTDEPGVNDLFTVGTVASILQMLKLPDGTVKVLVEGLQRARISALSDNGEHFSAKAEYLE	soluble
MHHHHHHPMEPEIKIVNVVVSTKIGDNIDLEEVAMILENAEYEPEQFPGLVCRLSVPKVALLIFRSGKVNCTGAKSKEEAEIAIKKIIKELKDAGIDVIENPEIKIQNMVATADLGIEPNLDDIALMVEGTEYEPEQFPGLVYRLDDPKVVVLIFGSGKVVITGLKSEEDAKRALKKILDTIKEVQEL	soluble
MHHHHHHSSGLVPRGSGMKETAAAKFERQHMDSPDLGTDDDDKAMADIGSEFMSTYHERPLGPASAAEWFRQRSYDYGQFPPEDLARRKRELGLTVSAVLPSRNVADTVGGIIDEIHALNERAPLIDQILVVDADSEDGTAGVAASHGAEVYSENELMSGYGDAHGKGDAMWRALSVTRGDLVLYIDADTRDFRPQLAYGVLGPVLEVPGVRFVKAAYRRPFRKGESIEEDGGGRVTELTAKPLFNLFYPELAGFVQPLAGEFVADRELFCSIPFLTGYAVETGIMIDVLKKVGLGAMAQVDLGERQNRHQHLRDLSRMSYAVVRAVARRLRQEGRLQQLREPGLPESFFQLSDYLHAVATPEGLKLQEYVEELVERPPINEVLRVR	soluble
MHHHHHHSSGRENLYFQGKLPEPQFYAEPHTYEEPGRAGRSFTREIEASRIHIEKIIGSGDSGEVCYGRLRVPGQRDVPVAIKALKAGYTERQRRDFLSEASIMGQFDHPNIIRLEGVVTRGRLAMIVTEYMENGSLDTFLRTHDGQFTIMQLVGMLRGVGAGMRYLSDLGYVHRDLAARNVLVDSNLVCKVSDFGLSRVLEDDPDAAYTTTGGKIPIRWTAPEAIAFRTFSSASDVWSFGVVMWEVLAYGERPYWNMTNRDVISSVEEGYRLPAPMGCPHALHQLMLDCWHKDRAQRPRFSQIVSVLDALIRSPESLRATATVS	soluble
MHHHHHHSSGRENLYFQGMTVREKTRLEKFRQLLSSQNTDLDELRKCSWPGVPREVRPITWRLLSGYLPANTERRKLTLQRKREEYFGFIEQYYDSRNEEHHQDTYRQIHIDIPRTNPLIPLFQQPLVQEIFERILFIWAIRHPASGYVQGINDLVTPFFVVFLSEYVEEDVENFDVTNLSQDMLRSIEADSFWCMSKLLDGIQDNYTFAQPGIQKKVKALEELVSRIDEQVHNHFRRYEVEYLQFAFRWMNNLLMRELPLRCTIRLWDTYQSEPEGFSHFHLYVCAAFLIKWRKEILDEEDFQGLLMLLQNLPTIHWGNEEIGLLLAEAYRLKYMFADAPNHYRR	soluble
MHHHHHHSSGRENLYFQGNAVLTWNNEILPNWETMWCSRKVRDLWWQGIPPSVRGKVWSLAIGNELNITHELFDICLARAKERWRSLSTGGSEVENEDAGFSAADREASLELIKLDISRTFPNLCIFQQGGPYHDMLHSILGAYTCYRPDVGYVQGMSFIAAVLILNLDTADAFIAFSNLLNKPCQMAFFRVDHGLMLTYFAAFEVFFEENLPKLFAHFKKNNLTPDIYLIDWIFTLYSKSLPLDLACRIWDVFCRDGEEFLFRTALGILKLFEDILTKMDFIHMAQFLTRLPEDLPAEELFASIATIQMQSRNKKWAQVLTALQKDSREMEKG	soluble
MHHHHHHSSGVDLGTENLYFQSMAHNKIPPRWLNCPRRGQPVAGRFLPLKTMLGPRYDSQVAEENRFHPSMLSNYLKSLKVKMGLLVDLTNTSRFYDRNDIEKEGIKYIKLQCKGHGECPTTENTETFIRLCERFNERNPPELIGVHCTHGFNRTGFLICAFLVEKMDWSIEAAVATFAQARPPGIYKGDYLKELFRRYGDIEEAPPPPLLPDWCFEDDEDEDEDEDGKKESETGSSASFG	soluble
MHHHHHHSSGVDLGTENLYFQSMGKVKATPMTPEQAMKQYMQKLTAFEHHEIFSYPEIYFLGLNAKKRQGMTGGPNNGGYDDDQGSYVQVPHDHVAYRYEVLKVIGKGSFGQVVKAYDHKVHQHVALKMVRNEKRFHRQAAEEIRILEHLRKQDKDNTMNVIHMLENFTFRNHICMTFELLSMNLYELIKKNKFQGFSLPLVRKFAHSILQCLDALHKNRIIHCDLKPENILLKQQGRSGIKVIDFGSSCYEHQRVYTYIQSRFYRAPEVILGARYGMPIDMWSLGCILAELLTGYPLLPGEDEGDQLACMIELLGMPSQKLLDASKRAKNFVSSKGYPRYCTVTTLSDGSVVLNGGRSRRGKLRGPPESREWGNALKGCDDPLFLDFLKQCLEWDPAVRMTPGQALRHPWLRRRLPKPPTGEKTSVKR	soluble
MHHHHHHSSGVDLGTENLYFQSMRPFLIGVSGGTASGKSTVCEKIMELLGQNEVEQRQRKVVILSQDRFYKVLTAEQKAKALKGQYNFDHPDAFDNDLMHRTLKNIVEGKTVEVPTYDFVTHSRLPETTVVYPADVVLFEGILVFYSQEIRDMFHLRLFVDTDSDVRLSRRVLRDVRRGRDLEQILTQYTTFVKPAFEEFCLPTKKYADVIIPRGVDNMVAINLIVQHIQDILNGDICKWHRGGS	soluble
MHHHHHHSSGVDLGTENLYFQSMSTDSVISSESGNTYYRVVLIGEQGVGKSTLANIFAGVHDSMDSDCEVLGEDTYERTLMVDGESATIILLDMWENKGENEWLHDHCMQVGDAYLIVYSITDRASFEKASELRIQLRRARQTEDIPIILVGNKSDLVRCREVSVSEGRACAVVFDCKFIETSAAVQHNVKELFEGIVRQVRLRRDSKEKN	soluble
MHHHHHHSSGVDLGTENLYFQSMTKTWTLKKHFVGYPTNSDFELKTSELPPLKNGEVLLEALFLTVDPYMRVAAKRLKEGDTMMGQQVAKVVESKNVALPKGTIVLASPGWTTHSISDGKDLEKLLTEWPDTIPLSLALGTVGMPGLTAYFGLLEICGVKGGETVMVNAAAGAVGSVVGQIAKLKGCKVVGAVGSDEKVAYLQKLGFDVVFNYKTVESLEETLKKASPDGYDCYFDNVGGEFSNTVIGQMKKFGRIAICGAISTYNRTGPLPPGPPPEIVIYQELRMEAFVVYRWQGDARQKALKDLLKWVLEGKIQYKEYIIEGFENMPAAFMGMLKGDNLGKTIVKA	soluble
MHISEVKTAFKIADVEYVKDSTKLNFNYLKDLKDENNQPLSQNILTQNVARVYLIVVNGEIKKIGGSQADGGIKSTLNIYKDGGVKGRPNIRSFGVWYFLYHTILTGAKIEFYMIYQPNFETQVKGLFGFCAIKDASISYKLLEQACLTDYRNNSNDALPEWNVQEQGKD	not soluble
MHLLLLHGFTSHPVLTLGPLSERLKEAGWEVRQPALPGHGTRPEDLLKVRFQDWLLAAEEAYLELPEPRGVVGLSMGGLLAAHLAARHPTKALVALAPAFALKNPLAPYLHWLIPRFPGPPSIEDPELRKRNPNYPYFPTRAVLELLALMRKTPEVLPRVKARALVVEAGKDRVVKGVDRYFALLGSPRKDHLVFPESGHDLLLDRDREEVARAVRDWLLASDNYLQ	soluble
MHLNNLNNFNNLENNGEYHCSGPIIKKPFRHIALTVPSSDITNFNEIFYVEPQYIAQAIRLTNTFQGAIDPLTLNFNFEKALQIANGLPNAGVTGTINQSVIHQTIEVSVMISQIKEIIRSVLGLVINSANFWNSVVSAITNTFTNLEPQVDENWIVWRNLSATQTSYFYKILFSIQNEDTGRFMAILPIAFEITVDVQKQQLLFITIKDSARYEVKMKALTVVQALDSYNAPIIDVFNVRNYSLHRPNHNILQNLNVNPIKS	soluble
MHNKWYWTFKHILWGPILRVYNRPEIHGLENIPDKGSAILASNHQAVMDSFYLPLMSPRQITFPAKQEYFTTPGFVGSLQRWFFTAVGQVPIDRTSKSASDDLLKTARMVLDRGDLFGIYPEGTRSPDGRIYRGKTGMARIALDTNVAVVPIAMIGSRDANPIGTWIPRPHKVVIKVGEAISPRSFVSDAGYDPDSYEAMRFFTDHVMKVLADLTGQQYVDLYAADVKKSLAAGKGYPEGA	not soluble
MHPIETPDKTFHDGDGVSELGTILPAWWLNQVQSELLAVLTAAGIQPDKSQPNQLLAALNRLAVVITGDQTVNGQKTFTAQTQFQSGIHLSANQTNWNGGHKAYIGADADNAHIVFGDDTLRLHGANNRISYNNHDIFHKANKPRFAEDIQGKPNTLSGYGIGNFKVETFRGDLNTLKTDGIYSLPTAVGSSNLPVENTACHIQVIAGTKHGWCRQLGYPAYTSDVYERHQTSSANDNWSAWKKLNSDGIPVGAIVSFPKAVQNPAGYLKANGTTFAQNTFPDLYRALGNSNRLPDLSRTDIGITAWFPSDQIPTGWLAFDDIRTRVTETAYPELYRLLTGKYGSIQNVPQAEDRFIRNAGNSLAVGTKQEDEIKRHVHKVFSHWTNHTDAAALGYEDRNERQRSALVSTWTDENLNDNGFLTPRSDSKMATGGDENRPKALVLKLCIKAADTLGEAVFWIKSHGETINAGALDAGTLAQGLQDKADRDHTHTAAQIQGLDEKISTAVAAQFTRQTIGGVDIVRFPDGTMIQTGSYRFTRSGGPIENEVVFPVAFADGNVKCFVSERHSERVTGDRRQHNWLFIRAKNHAAAIITNWYEGSCDWMAIGKAASGNAASSPIGPEIPETNEEPQRESGRTSTGPRNRRRRDGLLEALQD	not soluble
MHQNNGDYRVRGSRPSRSSEHAGPSLHCKKPEGSIRDTLRLSGSFKIYKEPMPELVCDIHLEKLAENIQKYSKIEERKYRENDMHVNDDSHSSDSRPTSDNEVSSSSDRNNDEPSVRRKRKSVENMCHEREHHGDHLQMQVASVIASNLGPMVEIVEKKLLQHKNAEKLLNDGREVFIKTLEEHNQKKEKVERKAKLVAIPPMKARNRRSSRNSLVYIDGPSTSESHSSMVQQVPIIDNIPEVLENETAVCSISSEADHNSRGIKDNQEFAIEISGEVSRTDDICDDFAVFLKKCTVLLTKFIDSYYDFRSTMKLKPEDAIEHWSAERLTKEEHAARVTRFDVAIARATRVQYNIDIKLLTKQSFVFDDDREAAINKRLARIERFVNEQHEEINWFCFSNFSLMDIGETKDRYCLGDFYDKAISMIPKVKDVPSVVQLAKECKMWSAFERILKQYNFEPLKVFEELQKMLEKDYFLPKGKIFCQFLLNVAQLFSYDVVKNEWSCIKQIDGTLFSGVPFDRDGNLLPTSQNSPTECSS	not soluble
